# Where a chain is given by its changes, count along the chain named.
# T1: NY-ESO-1 peptide on HLA-B*35:03 (human)
# T1 peptide: MPFATPMEAEL
# T2: NY-ESO-1 peptide on HLA-C*03:04 (human)
# T2 peptide: FATPMEAEL
# T3: NY-ESO-1 peptide on HLA-B*35:03 (human)
# T3 peptide: MPFATPMEA
# T4: MAGE-A3 peptide on HLA-A*01:01 (human)
# T4 peptide: EVDPIGHLY
# T5: NY-ESO-1 peptide on HLA-A*02:01 (human)
# T5 peptide: SLLMWITQC
# T6: MAGE-A3 peptide on HLA-DRB1*13:02 (human)
# T6 peptide: TSYVKVLHHMVKISG
# T7: KRAS Q61H peptide on HLA-A*01:01 (human)
# T7 peptide: ILDTAGHEEY
# T8: MAGE-A3 peptide on HLA-DRB1*11:01 (human)
# T8 peptide: TSYVKVLHHMVKISG
# B1: TCRCD8-NY#102 (TCR, V domains shown)
# Valpha: AQSVAQPEDQVNVAEGNPLTVKCTYSVSGNPYLFWYVQYPNRGLQFLLKYITGDNLVKGSYGFEAEFNKSQTSFHLKKPSALVSDSALYFCAVRDIEVVNAGNMLTFGGGTRLMVKP
# Vbeta: ETGVTQSPTHLIKTRGQQVTLRCSSQSGHNTVSWYQQALGQGPQFIFQYYREEENGRGNFPPRFSGLQFPNYSSELNVNALELDDSALYLCASTDRVRYEQFFGPGTRLTVL
# B2: TCRCD8-53-02-NY #107 (TCR, V domains shown)
# Valpha: GQNIDQPTEMTATEGAIVQINCTYQTSGFNGLFWYQQHAGEAPTFLSYNVLDGLEEKGRFSSFLSRSKGYSYLLLKELQMKDSASYLCAVRLGDAGNMLTFGGGTRLMVKP
# Vbeta: DSGVTQTPKHLITATGQRVTLRCSPRSGDLSVYWYQQSLDQGLQFLIQYYNGEERAKGNILERFSAQQFPDLHSELNLSSLELGDSALYFCASSVGRGMNTEAFFGQGTRLTVV
# B3: TCRCD8-NY#101 (TCR, V domains shown)
# Valpha: AQTVTQSQPEMSVQEAETVTLSCTYDTSESDYYLFWYKQPPSRQMILVIRQEAYKQQNATENRFSVNFQKAAKSFSLKISDSQLGDAAMYFCAYRSDAGGTSYGKLTFGQGTILTVHP
# Vbeta: ETGVTQSPTHLIKTRGQQVTLRCSSQSGHNTVSWYQQALGQGPQFIFQYYREEENGRGNFPPRFSGLQFPNYSSELNVNALELDDSALYLCASSPRTGGAGNTIYFGEGSWLTVV
# B4: TCRCD8-MA3#10 (TCR, V domains shown)
# Valpha: RKEVEQDPGPFNVPEGATVAFNCTYSNSASQSFFWYRQDCRKEPKLLMSVYSSGNEDGRFTAQLNRASQYISLLIRDSKLSDSATYLCVVNERNSGYALNFGKGTSLLVTP
# Vbeta: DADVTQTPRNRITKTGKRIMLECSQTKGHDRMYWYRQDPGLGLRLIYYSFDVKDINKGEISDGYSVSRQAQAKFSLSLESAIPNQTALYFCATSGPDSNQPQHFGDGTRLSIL
# B5: TCRCD8-MA3#7 (TCR, V domains shown)
# Valpha: ELKVEQNPLFLSMQEGKNYTIYCNYSTTSDRLYWYRQDPGKSLESLFVLLSNGAVKQEGRLMASLDTKARLSTLHITAAVHDLSATYFCAEPNTDKLIFGTGTRLQVFP
# Vbeta: DAMVIQNPRYQVTQFGKPVTLSCSQTLNHNVMYWYQQKSSQAPKLLFHYYDKDFNNEADTPDNFQSRRPNTSFCFLDIRSPGLGDTAMYLCATNYDRGYEQYFGPGTRLTVT
# B6: TCRCD8-MA3#8 (TCR, V domains shown)
# Valpha: QKEVEQNSGPLSVPEGAIASLNCTYSDRGSQSFFWYRQYSGKSPELIMFIYSNGDKEDGRFTAQLNKASQYVSLLIRDSQPSDSATYLCAVWATGNQFYFGTGTSLTVIP
# Vbeta: B5 Vbeta with N94S, Y95F
# B7: TCRCD8-NY#99 (TCR, V domains shown)
# Valpha: KQEVTQIPAALSVPEGENLVLNCSFTDSAIYNLQWFRQDPGKGLTSLLLIQSSQREQTSGRLNASLDKSSGRSTLYIAASQPGDSATYLCAPNDYKLSFGAGTTVTVRA
# Vbeta: KAGVTQTPRYLIKTRGQQVTLSCSPISGHRSVSWYQQTPGQGLQFLFEYFSETQRNKGNFPGRFSGRQFSNSRSEMNVSTLELGDSALYLCASSFSSDNEQFFGPGTRLTVL
# B8: TCRCD8-EL28-NYE #2 (TCR, V domains shown)
# Valpha: SQELEQSPQSLIVQEGKNLTINCTSSKTLYGLYWYKQKYGEGLIFLMMLQKGGEEKSHEKITAKLDEKKQQSSLHITASQPSHAGIYLCGADMLDYQKVTFGIGTKLQVIP
# Vbeta: DAGVIQSPRHEVTEMGQEVTLRCKPISGHDYLFWYRQTMMRGLELLIYFNNNVPIDDSGMPEDRFSAKMPNASFSTLKIQPSEPRDSAVYFCASRRGGSEQYFGPGTRLTVT
# B9: TCRCD4-MA3#5 (TCR, V domains shown)
# Valpha: AQSVTQLGSHVSVSEGALVLLRCNYSSSVPPYLFWYVQYPNQGLQLLLKYTSAATLVKGINGFEAEFKKSETSFHLTKPSAHMSDAAEYFCAVSDGGATNKLIFGTGTLLAVQP
# Vbeta: DGGITQSPKYLFRKEGQNVTLSCEQNLNHDAMYWYRQDPGQGLRLIYYSQIVNDFQKGDIAEGYSVSREKKESFPLTVTSAQKNPTAFYLCASSSGGRASFTQYFGPGTRLTVL
# B10: TCRCD8-NY#100 (TCR, V domains shown)
# Valpha: SQQGEEDPQALSIQEGENATMNCSYKTSINNLQWYRQNSGRGLVHLILIRSNEREKHSGRLRVTLDTSKKSSSLLITASRAADTASYFCATDSNDYKLSFGAGTTVTVRA
# Vbeta: GAGVSQSPRYKVTKRGQDVALRCDPISGHVSLYWYRQALGQGPEFLTYFNYEAQQDKSGLPNDRFSAERPEGSISTLTIQRTEQRDSAMYRCASSWGGELFFGEGSRLTVL
# B11: TCRCD8-53-02-NY #109 (TCR, V domains shown)
# Valpha: GQQVMQIPQYQHVQEGEDFTTYCNSSTTLSNIQWYKQRPGGHPVFLIQLVKSGEVKKQKRLTFQFGEAKKNSSLHITATQTTDVGTYFCADNAGNMLTFGGGTRLMVKP
# Vbeta: GAVVSQHPSWVICKSGTSVKIECRSLDFQATTMFWYRQFPKQSLMLMATSNEGSKATYEQGVEKDKFLINHASLTLSTLTVTSAHPEDSSFYICSARDPGRNYGYTFGSGTRLTVV
# B12: TCRCD8-53-02-NY #110 (TCR, V domains shown)
# Valpha: B11 Valpha with A90G
# Vbeta: B11 Vbeta with P99E, G100D, N102P
# B13: TCRCD8-EL8-LM7 #1 (TCR, V domains shown)
# Valpha: AQKITQTQPGMFVQEKEAVTLDCTYDTSDPSYGLFWYKQPSSGEMIFLIYQGSYDQQNATEGRYSLNFQKARKSANLVISASQLGDSAMYFCAMREGQDSSYKLIFGSGTRLLVRP
# Vbeta: DSGVTQTPKHLITATGQRVTLRCSPRSGDLSVYWYQQSLDQGLQFLIQYYNGEERAKGNILERFSAQQFPDLHSELNLSSLELGDSALYFCASSVLGPNTEAFFGQGTRLTVV
# B14: TCRCD8-C1-40-MA3 #1 (TCR, V domains shown)
# Valpha: GQQLNQSPQSMFIQEGEDVSMNCTSSSIFNTWLWYKQEPGEGPVLLIALYKAGELTSNGRLTAQFGITRKDSFLNISASIPSDVGIYFCAGQLRYGGATNKLIFGTGTLLAVQP
# Vbeta: B13 Vbeta with Q48H, L96G, P98A, N99S, T100Y, A102Q, F103Y, Q106P, V113T
# B15: TCRCD8-EL8-LM7 #4 (TCR, V domains shown)
# Valpha: AQKVTQAQTEISVVEKEDVTLDCVYETRDTTYYLFWYKQPPSGELVFLIRRNSFDEQNEISGRYSWNFQKSTSSFNFTITASQVVDSAVYFCALSNAGGTSYGKLTFGQGTILTVHP
# Vbeta: EAQVTQNPRYLITVTGKKLTVTCSQNMNHEYMSWYRQDPGLGLRQIYYSMNVEVTDKGDVPEGYKVSRKEKRNFPLILESPSPNQTSLYFCASSRRLPPPYGYTFGSGTRLTVV
# B16: TCRCD8-EL8-LM7 #7 (TCR, V domains shown)
# Valpha: AQKVTQAQTEISVVEKEDVTLDCVYETRDTTYYLFWYKQPPSGELVFLIRRNSFDEQNEISGRYSWNFQKSTSSFNFTITASQVVDSAVYFCALSESSNTGKLIFGQGTTLQVKP
# Vbeta: B15 Vbeta with L97E
# B17: TCRCD4-MA3#9 (TCR, V domains shown)
# Valpha: GNSVTQMEGPVTLSEEAFLTINCTYTATGYPSLFWYVQYPGEGLQLLLKATKADDKGSNKGFEATYRKETTSFHLEKGSVQVSDSAVYFCALSDPNNQGGKLIFGQGTELSVKP
# Vbeta: DTAVSQTPKYLVTQMGNDKSIKCEQNLGHDTMYWYKQDSKKFLKIMFSYNNKELIINETVPNRFSPKSPDKAHLNLHINSLELGDSAVYFCASSQVRGTTEAFFGQGTRLTVV
# How the values were obtained:
# [1] = biological target: T1, NY-ESO-1 peptide on HLA-B*35:03; experiment: killing
# [2] = biological target: T2, NY-ESO-1 peptide on HLA-C*03:04; experiment: multimer staining
# [3] = biological target: T3, NY-ESO-1 peptide on HLA-B*35:03; experiment: killing
# [4] = biological target: T4, MAGE-A3 peptide on HLA-A*01:01; experiment: multimer staining
# [5] = biological target: T5, NY-ESO-1 peptide on HLA-A*02:01; experiment: killing
# [6] = biological target: T6, MAGE-A3 peptide on HLA-DRB1*13:02; experiment: cytokine release
# [7] = biological target: NY-ESO-1 peptide on HLA-B*40:01 (human); experiment: killing
# [8] = biological target: T7, KRAS Q61H peptide on HLA-A*01:01; experiment: IFNγ ELISPOT; peptide titration (1 µM to 0.1 nM) on HLA-A*01:01-transfected K562; full-length, on cells
# [9] = biological target: T4, MAGE-A3 peptide on HLA-A*01:01; experiment: cytokine release
# [10] = biological target: T8, MAGE-A3 peptide on HLA-DRB1*11:01; experiment: cytokine release
binder,measurement,setting,value
B1,binding result,[1],recognises
B2,binding result,[2],recognises
B3,binding result,[3],recognises
B4,binding result,[4],recognises
B5,binding result,[4],recognises
B6,binding result,[4],recognises
B7,binding result,[1],recognises
B8,binding result,[5],recognises
B9,binding result,[6],recognises
B10,binding result,[1],recognises
B11,binding result,[7],recognises
B12,binding result,[7],recognises
B13,minimal recognised peptide concentration,[8],10 nM
B14,binding result,[9],recognises
B15,minimal recognised peptide concentration,[8],10 nM
B16,minimal recognised peptide concentration,[8],10 nM
B17,binding result,[10],recognises
